Measurements as given in patent US6562788B1, “Topoisomerase II inhibitor” (Laboratoire L. Lafon, priority 1998, dated 2003).

What was measured:
[1] = target: T1, human topoisomerase II alpha (Homo sapiens, UniProt P11388); assay: relaxation of supercoiled plasmids, topoisomerase II activity assay; type: biochemical; conditions: peptide concentration of 0.5 μM
Description: (§1) Two enzymatic assays make it possible to estimate the effect of the pentides on topoisomerase II activity: relaxation of supercoiled plasmids and decatenation of kinetoplast DNA (Wang, J. C., An. Rev. Biochem., 54: 665-697, 1985; Maxwell, A., Advances in Protein Chemistry, 38: 69-107, 1986; Liu, L. F., Cell, 19: 697-707, 1980).

[2] = target: T2, topoisomerase II of yeast (Saccharomyces cerevisiae, UniProt P06786); assay: as above; type: biochemical; conditions: peptide concentration of 0.5 μM
T2 sequence (P06786 1-1428): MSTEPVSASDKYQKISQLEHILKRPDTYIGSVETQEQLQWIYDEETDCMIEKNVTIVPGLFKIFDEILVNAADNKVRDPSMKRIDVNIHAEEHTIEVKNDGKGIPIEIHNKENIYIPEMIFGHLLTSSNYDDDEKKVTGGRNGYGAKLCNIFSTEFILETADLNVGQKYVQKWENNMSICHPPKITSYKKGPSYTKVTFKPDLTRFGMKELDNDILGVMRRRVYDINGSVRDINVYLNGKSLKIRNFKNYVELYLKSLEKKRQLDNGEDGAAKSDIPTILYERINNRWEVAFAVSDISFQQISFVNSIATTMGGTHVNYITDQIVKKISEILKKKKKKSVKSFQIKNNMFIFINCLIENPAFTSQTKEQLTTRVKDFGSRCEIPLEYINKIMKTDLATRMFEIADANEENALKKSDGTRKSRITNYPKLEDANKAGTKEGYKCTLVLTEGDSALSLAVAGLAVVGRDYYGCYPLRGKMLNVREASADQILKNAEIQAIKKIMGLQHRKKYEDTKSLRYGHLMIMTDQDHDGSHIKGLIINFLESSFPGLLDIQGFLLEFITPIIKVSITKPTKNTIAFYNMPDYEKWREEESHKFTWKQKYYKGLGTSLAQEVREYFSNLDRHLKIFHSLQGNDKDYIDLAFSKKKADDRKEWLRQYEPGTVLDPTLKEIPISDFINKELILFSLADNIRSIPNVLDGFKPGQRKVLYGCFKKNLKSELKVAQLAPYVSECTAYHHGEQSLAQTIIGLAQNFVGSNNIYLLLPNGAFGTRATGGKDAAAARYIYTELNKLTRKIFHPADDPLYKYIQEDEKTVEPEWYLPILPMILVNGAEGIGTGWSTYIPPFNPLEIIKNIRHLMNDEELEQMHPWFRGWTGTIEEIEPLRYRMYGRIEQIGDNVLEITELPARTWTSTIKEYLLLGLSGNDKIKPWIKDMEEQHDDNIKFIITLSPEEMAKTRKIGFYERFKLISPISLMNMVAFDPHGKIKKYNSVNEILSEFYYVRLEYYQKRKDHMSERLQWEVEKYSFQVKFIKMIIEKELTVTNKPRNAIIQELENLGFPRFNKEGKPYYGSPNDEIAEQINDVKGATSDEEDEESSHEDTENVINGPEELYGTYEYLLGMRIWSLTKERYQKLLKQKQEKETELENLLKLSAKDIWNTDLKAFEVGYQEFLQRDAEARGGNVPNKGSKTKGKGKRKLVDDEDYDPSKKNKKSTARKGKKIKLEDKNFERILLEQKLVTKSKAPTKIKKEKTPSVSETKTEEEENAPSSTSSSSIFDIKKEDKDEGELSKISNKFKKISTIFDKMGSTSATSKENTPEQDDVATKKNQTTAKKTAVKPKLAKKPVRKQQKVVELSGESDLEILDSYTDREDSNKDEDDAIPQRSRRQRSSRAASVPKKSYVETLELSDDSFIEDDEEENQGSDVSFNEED
Description: as §1

[3] = target: T1, human topoisomerase II alpha; assay: decatenation of kinetoplast DNA, topoisomerase II activity assay; type: biochemical; conditions: peptide concentration of 0.5 μM
Description: as §1

[4] = target: T2, topoisomerase II of yeast; assay: as above; type: biochemical; conditions: peptide concentration of 0.5 μM
Description: as §1

[5] = system: topoisomerase II; conditions: prior art, literature; cited from earlier work

T1 sequence (P11388 whole entry): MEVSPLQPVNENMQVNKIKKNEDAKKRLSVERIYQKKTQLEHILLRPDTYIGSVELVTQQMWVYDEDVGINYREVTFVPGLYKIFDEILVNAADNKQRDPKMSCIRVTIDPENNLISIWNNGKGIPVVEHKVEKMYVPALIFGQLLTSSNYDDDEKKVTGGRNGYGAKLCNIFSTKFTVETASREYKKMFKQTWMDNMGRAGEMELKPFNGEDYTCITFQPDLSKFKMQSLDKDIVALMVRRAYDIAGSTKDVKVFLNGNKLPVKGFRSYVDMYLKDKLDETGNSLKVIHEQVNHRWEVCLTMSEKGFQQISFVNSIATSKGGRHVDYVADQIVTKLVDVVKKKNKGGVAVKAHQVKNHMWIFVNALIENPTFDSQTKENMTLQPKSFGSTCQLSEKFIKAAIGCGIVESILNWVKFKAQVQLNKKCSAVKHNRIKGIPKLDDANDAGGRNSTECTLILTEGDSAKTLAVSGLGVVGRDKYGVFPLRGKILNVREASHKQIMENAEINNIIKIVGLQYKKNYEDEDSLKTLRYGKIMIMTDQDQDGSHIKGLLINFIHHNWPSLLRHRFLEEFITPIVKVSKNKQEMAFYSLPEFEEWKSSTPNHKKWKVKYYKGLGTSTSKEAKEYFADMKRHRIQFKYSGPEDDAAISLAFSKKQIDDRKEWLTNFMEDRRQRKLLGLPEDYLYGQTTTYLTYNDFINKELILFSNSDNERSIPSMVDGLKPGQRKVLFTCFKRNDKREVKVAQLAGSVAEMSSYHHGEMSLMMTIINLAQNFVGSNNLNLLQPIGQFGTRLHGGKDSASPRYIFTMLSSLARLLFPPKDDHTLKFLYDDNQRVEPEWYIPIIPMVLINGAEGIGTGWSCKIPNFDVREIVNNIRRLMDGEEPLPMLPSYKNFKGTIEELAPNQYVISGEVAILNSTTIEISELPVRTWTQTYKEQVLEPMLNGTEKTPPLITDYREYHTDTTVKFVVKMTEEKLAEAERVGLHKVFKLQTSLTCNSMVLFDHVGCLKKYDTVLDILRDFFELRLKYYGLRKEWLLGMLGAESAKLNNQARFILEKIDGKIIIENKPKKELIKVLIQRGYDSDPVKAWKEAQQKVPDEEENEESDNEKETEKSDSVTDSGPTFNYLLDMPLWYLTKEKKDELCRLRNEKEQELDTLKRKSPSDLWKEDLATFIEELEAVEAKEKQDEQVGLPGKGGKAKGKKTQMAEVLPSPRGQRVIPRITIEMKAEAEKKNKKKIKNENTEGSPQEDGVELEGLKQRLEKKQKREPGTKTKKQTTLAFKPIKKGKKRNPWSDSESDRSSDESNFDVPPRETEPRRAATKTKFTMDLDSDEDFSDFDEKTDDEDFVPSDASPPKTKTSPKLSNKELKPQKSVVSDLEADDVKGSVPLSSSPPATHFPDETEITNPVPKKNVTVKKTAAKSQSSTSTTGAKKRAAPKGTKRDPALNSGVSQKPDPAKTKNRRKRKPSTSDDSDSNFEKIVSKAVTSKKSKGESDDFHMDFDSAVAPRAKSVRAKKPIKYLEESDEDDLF

| Substance | inhibition of topoisomerase II activity (relaxation of supercoiled plasmids) [1] | inhibition of topoisomerase II activity (relaxation of supercoiled plasmids) [2] | inhibition of topoisomerase II activity (decatenation of kinetoplast DNA) [3] | inhibition of topoisomerase II activity (decatenation of kinetoplast DNA) [4] | inhibitory activity for topoisomerase II [5] |
| --- | --- | --- | --- | --- | --- |
| Thr-Gin-Leu-Asp-Ile-Leu-Arg-Asp-Leu-Phe-Glu-Leu-Arg -Leu-Lys-Tyr-Tyr-Gly-Leu-Arg-Lys-Glu-Phe-Leu-Leu-Gin-Met -Leu-Gly (TQLDILRDLFELRLKYYGLRKEFLLQMLG) [example 1] | totally inhibits | totally inhibits | totally inhibits | totally inhibits | – |
| sequence 1013 to 1041 of human topoisomerase II alpha: topoisomerase II fragment, corresponding to sequence 1013 to 1041 of human topoisomerase II alpha, described by Frére Gallois et al. | – | – | – | – | inhibitory activity |
